# Assay results reported in US8956612B2, “Peptide associated with rheumatic fever (PARF) and its use as a diagnostic marker” (Helmholtz-Zentrum für Infektionsforschung GmbH, priority 2006, dated 2015).
# B1: FOG1-A: recombinant protein, the first 134 amino acids of the mature FOG protein (protein, listed as Streptococcus sp.)
# chain: DRWKAQTEEARTDKLIAGFANLDADVTNLGKMMDELQKLKDFSKQNNSIGEYARYLQKLNDQFQEYYEQVVGDDSRRVLAKELAKNTELNEKLSELSTTSQALAKELQEQKENYDLVK
# How the values were obtained:
# collagen IV [1] = test: Immunization of mice, anti-collagen IV antibody titer by ELISA; assay type: in vivo, BALB/c mice; conditions: sera of immunized mice compared to the buffer control
# Protocol: Pathogen free 8 week old female BALB/c mice were immunized intra-peritoneally with an emulsion of 25-30 μg recombinant purified protein in 50 μl PBS and 50 μl Freund's incomplete adjuvant per dose at day 1, 7 and 14. Control mice were injected with 50 μl PBS and 50 μl Freund's incomplete adjuvant per dose. At day 21, serum samples of each group were collected and tested in ELISA. To absorb FOG reactive antibodies, 10 μl serum pool was diluted 1:50 in PBS, and incubated for 1 h with 1 mg GST-FOGfl protein immobilized on glutathione sepharose 4B. Antibodies that bound to the affinity matrix were removed by centrifugation. The supernatant was subjected to ELISA analysis.
# To determine anti-collagen CIV antibody titers, 96 well plates (Greiner, Frickenhausen, Germany) were coated over night at 4° C. with anti-human collagen IV rabbit polyclonal antibody (Progen, Heidelberg, Germany) diluted 1:100 in 0.1 M NaHCO3 (pH=9.6), blocked with 2% bovine serum albumin (BSA) in PBST and incubated with collagen IV (2 μg/ml in PBS) for 1 h at 37° C. […] After washing, bound antibodies were detected using suitable horseradish peroxidase coupled secondary anti-serum (goat anti-mouse IgG,M, Jackson Laboratories; rabbit anti-human IgG, A, M, Sigma-Aldrich) and 2,2-azino-di-[3-ethylbenzthiazoline sulfonate]diammonium salt (ABTS tablets, Boehringer, Mannheim, Germany) as substrate. […]
# collagen IV [2] = biological target: T1, collagen IV (Homo sapiens, UniProt P02462+P08572); test: Surface plasmon resonance, FOG fragments on immobilized collagen IV; assay type: binding; conditions: SPR; 12.5, 25, 50, 100 μg/ml
# T1 construct: purchased Sigma; host or cells: human placenta (tissue-derived)
# Protocol: Site directed mutagenesis was performed on the plasmid pGEX-6P-1-FOGfl that coded for the GST-FOGfl fusion protein. E. coli clones containing the plasmids with the desired substitutions were generated using the GeneTailor™ Site Directed Mutagenesis System (Invitrogen) following the manufacturers recommendations. The tagged proteins from E. coli lysates were bound to glutathione sepharose 4B (GE Healthcare) and eluted with 10 mM reduced L-glutathione (Sigma) in 50 mM TrisHCl (pH=8.0) after washing the matrix with PBS. Alternatively, for SPR measurements of FOG1-B and FOG1-A the GST-tag was removed by digesting the proteins with PreScission™ protease (GE Healthcare) while bound to the affinity matrix, which eluted the untagged FOG proteins.
# Protein interactions were studied in a BIAcore 2000 system (BIAcore AB) using 10 mM HEPES, 100 mM NaCl, pH=7.4 as running buffer. A CM5 sensor chip was activated by a 4 min injection of 0.05M N-hydroxysuccinimid, 0.2 M N-ethyl-N-(3-dimethylaminopropyl)-carbodiimide hydrochloride in water. Collagen IV from human placenta (Sigma, 1 mg/ml in 0.1M NaAc) was diluted 1:25 in 10 mM NaAc (pH=5.2). Immediate injection of 3 μl at a flow rate of 5 μl/min lead to immobilization of 400 to 550 response units (RU) of collagen IV. Residual reactive groups were inactivated by 6 min injection of 1 M ethanolamine, 0.1 M NaHCO3, 0.5 M NaCl, 5 mM EDTA, pH=8.0. […]
# T1 sequence (P02462 173-1669): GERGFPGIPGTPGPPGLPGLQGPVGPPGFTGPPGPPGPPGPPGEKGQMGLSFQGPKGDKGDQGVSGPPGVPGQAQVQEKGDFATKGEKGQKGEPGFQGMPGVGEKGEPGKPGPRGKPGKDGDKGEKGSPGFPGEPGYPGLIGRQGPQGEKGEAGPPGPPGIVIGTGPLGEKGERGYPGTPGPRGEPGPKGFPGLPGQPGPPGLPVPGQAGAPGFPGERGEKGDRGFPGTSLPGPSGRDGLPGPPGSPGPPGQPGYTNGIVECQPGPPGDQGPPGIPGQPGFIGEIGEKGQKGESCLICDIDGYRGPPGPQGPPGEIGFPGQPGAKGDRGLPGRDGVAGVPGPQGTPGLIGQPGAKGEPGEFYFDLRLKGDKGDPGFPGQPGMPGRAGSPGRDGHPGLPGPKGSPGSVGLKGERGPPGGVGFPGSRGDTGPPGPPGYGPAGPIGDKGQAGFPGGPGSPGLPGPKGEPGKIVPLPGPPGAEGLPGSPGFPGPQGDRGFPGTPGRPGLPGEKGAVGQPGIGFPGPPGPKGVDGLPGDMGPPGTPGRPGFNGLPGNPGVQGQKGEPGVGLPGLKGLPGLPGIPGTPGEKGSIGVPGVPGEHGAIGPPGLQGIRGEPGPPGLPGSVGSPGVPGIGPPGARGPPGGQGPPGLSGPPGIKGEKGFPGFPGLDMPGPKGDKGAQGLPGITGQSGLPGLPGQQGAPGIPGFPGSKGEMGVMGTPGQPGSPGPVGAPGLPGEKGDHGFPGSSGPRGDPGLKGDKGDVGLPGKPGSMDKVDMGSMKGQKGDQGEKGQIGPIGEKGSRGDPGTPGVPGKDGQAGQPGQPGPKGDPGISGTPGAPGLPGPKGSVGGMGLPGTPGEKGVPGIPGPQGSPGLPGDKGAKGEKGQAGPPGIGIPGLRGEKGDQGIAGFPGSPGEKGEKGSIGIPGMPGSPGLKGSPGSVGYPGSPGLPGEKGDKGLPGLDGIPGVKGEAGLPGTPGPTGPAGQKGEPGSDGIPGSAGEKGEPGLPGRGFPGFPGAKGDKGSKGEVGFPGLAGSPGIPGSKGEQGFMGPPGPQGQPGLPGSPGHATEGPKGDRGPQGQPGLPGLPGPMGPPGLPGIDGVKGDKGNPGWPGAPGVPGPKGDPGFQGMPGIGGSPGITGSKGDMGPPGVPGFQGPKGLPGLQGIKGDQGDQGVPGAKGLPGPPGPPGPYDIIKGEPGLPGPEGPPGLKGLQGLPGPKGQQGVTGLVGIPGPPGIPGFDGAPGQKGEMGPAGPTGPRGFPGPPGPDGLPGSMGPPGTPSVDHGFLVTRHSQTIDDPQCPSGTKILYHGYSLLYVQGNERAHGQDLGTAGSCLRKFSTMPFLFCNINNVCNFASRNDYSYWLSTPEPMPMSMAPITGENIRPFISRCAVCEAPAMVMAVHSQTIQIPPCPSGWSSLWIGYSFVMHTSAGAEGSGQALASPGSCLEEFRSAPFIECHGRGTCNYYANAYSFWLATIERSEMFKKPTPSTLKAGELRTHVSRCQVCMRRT
# T1 sequence (P08572 184-1712): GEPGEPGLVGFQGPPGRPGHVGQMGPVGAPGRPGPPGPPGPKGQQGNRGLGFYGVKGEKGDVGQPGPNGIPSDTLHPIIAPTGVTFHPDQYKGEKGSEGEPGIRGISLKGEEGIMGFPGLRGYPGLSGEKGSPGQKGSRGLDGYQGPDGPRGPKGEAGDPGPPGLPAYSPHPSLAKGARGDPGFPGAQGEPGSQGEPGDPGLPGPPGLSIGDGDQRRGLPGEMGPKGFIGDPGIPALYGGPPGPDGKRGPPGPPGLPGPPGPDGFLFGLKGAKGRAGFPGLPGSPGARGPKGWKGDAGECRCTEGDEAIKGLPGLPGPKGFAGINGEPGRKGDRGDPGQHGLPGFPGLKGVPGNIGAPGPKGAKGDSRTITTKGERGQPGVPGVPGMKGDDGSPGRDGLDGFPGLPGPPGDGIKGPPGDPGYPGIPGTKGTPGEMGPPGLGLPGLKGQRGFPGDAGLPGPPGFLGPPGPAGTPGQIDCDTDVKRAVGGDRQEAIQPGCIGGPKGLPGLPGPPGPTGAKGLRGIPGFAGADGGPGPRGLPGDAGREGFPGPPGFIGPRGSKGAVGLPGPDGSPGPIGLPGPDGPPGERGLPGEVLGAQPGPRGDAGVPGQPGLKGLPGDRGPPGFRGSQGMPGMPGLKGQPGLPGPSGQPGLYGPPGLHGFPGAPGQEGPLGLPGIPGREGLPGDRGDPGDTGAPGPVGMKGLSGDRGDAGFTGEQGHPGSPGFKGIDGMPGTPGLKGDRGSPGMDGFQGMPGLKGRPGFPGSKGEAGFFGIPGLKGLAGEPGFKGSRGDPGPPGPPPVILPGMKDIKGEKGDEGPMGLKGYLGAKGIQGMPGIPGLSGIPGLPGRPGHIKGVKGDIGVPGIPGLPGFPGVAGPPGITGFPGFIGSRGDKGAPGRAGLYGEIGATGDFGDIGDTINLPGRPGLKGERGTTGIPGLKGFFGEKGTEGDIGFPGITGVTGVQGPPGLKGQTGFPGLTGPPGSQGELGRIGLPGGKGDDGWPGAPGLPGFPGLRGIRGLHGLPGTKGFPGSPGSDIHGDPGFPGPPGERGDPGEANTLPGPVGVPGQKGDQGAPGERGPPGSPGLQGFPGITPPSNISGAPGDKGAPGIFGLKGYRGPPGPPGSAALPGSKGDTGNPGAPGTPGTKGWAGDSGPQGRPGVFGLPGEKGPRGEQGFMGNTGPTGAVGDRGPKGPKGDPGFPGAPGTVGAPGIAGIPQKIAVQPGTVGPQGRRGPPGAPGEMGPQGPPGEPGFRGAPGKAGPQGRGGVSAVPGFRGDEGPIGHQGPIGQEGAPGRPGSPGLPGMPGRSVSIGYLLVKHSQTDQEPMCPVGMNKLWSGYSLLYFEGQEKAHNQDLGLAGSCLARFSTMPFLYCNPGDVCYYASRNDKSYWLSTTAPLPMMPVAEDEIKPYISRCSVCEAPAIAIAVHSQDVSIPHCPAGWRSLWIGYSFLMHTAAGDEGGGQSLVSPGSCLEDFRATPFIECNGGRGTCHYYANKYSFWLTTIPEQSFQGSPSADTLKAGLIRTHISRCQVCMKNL
molecule,measurement,setting,value
B1,titers of anti-collagen antibodies in ELISA,collagen IV [1],Substantially higher titers
same,interaction with immobilized collagen IV,collagen IV [2],concentration dependent interaction
